For the assay, the target named is purified human vitronectin (Invitrogen) (UniProt P04004). Briefly: ELISA. The conditions noted are these: 20 nM Vn, read off a plot. Background: ELISA stands for enzyme-linked immunosorbent assay.
UniProt P04004, sequence (P04004 whole entry, looked up): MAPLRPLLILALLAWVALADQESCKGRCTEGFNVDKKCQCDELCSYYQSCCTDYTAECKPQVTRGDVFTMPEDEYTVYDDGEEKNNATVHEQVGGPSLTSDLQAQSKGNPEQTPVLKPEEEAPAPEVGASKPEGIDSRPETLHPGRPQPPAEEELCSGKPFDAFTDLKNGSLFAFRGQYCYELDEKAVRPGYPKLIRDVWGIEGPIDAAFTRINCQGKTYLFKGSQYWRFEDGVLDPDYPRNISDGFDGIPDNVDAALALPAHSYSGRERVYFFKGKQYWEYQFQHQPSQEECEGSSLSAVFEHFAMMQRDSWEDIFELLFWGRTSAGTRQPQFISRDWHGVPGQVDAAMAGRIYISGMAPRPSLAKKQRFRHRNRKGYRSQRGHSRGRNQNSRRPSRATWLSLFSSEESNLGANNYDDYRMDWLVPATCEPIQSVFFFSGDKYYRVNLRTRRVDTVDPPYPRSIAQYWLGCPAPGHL

Regarding “synthetic peptide of loop 2 of P5 from NTHi KR271 I5A”, the response (absorbance at 450 nm) (parent: est. 0.12) stood at 0.1.
“synthetic peptide of loop 2 of P5 from NTHi 3655 L5A; V8A; S12A”: for the setting “parent: est. 0.28”, the response (absorbance at 450 nm) was determined as 0.13.
In the case of “synthetic peptide of loop 2 of P5 from NTHi P652 V3A; F5A; L7A”, under “parent: est. 0.97”, the response (absorbance at 450 nm) worked out at 0.45.
With “synthetic peptide of loop 2 of P5 from NTHi KR317 L5A; V8A; Q10A; T11A; R12A”, the response (absorbance at 450 nm) (parent: est. 0.23) amounted to 0.095.

Values taken from paper PMC12718013.
